# Data taken from patent US10788499B2, “Methods for assaying palmitoyl protein thioesterase 1 and tripeptidyl peptidase activity in dried blood spots for detection of neuronal ceroid lipofuscinoses in newborns” (University of Washington, priority 2015, dated 2020).
# Ends that are not written are not given here. * marks the point of attachment. Lauroyl = CCCCCCCCCCCC(=O)*
# T1: palmitoyl protein thioesterase 1 (PPT1) (Homo sapiens, UniProt P50897)
# T1 construct: from tissue; host or cells: dried blood spots from human newborns, NCL patients and a healthy adult control
# T1 sequence (P50897 28-306): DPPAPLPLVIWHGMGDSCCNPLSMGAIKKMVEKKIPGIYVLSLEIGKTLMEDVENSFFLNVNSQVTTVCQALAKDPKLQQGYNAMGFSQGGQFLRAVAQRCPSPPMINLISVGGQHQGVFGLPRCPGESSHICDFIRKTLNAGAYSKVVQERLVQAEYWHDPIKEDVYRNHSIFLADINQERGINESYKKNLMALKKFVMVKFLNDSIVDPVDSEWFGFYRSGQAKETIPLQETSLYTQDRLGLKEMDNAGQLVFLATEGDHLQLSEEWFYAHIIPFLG
# T2: tripeptidyl peptidase 1 (TPP1) (Homo sapiens, UniProt O14773)
# T2 construct: from tissue; host or cells: dried blood spots from human newborns, NCL II patients and a control
# T2 sequence (O14773 196-563): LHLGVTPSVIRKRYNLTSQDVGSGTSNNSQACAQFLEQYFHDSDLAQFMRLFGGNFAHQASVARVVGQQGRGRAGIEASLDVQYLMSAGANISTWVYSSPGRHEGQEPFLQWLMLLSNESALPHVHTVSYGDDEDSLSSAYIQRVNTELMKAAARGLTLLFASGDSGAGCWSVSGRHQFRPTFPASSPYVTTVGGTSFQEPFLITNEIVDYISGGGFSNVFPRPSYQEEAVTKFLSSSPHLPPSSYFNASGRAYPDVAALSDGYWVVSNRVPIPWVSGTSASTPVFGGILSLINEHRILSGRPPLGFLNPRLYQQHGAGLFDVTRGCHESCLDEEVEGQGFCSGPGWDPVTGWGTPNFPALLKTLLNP
# T3: palmitoyl protein thioesterase (Homo sapiens, UniProt P50897)
# T3 sequence (P50897 28-306): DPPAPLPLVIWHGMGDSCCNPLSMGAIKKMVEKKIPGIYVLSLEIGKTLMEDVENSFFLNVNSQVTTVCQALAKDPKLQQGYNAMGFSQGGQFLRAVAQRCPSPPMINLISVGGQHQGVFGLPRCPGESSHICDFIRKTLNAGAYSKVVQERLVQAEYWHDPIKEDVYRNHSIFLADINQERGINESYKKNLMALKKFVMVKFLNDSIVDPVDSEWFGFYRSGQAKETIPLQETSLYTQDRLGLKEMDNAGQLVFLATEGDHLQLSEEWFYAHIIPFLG
# Experiments:
# [1] = Incubation of synthetic PPT1-P in assay buffer with DBS (digestion by proteolytic enzymes in rehydrated DBS); assay type: in vitro ADME, human; details: 18 h
# Experimental: The leveling-off effect can be in part due to enzymatic digestion of PPT1-P by proteolytic enzymes in rehydrated DBS. This was checked by incubating synthetic PPT1-P in the assay buffer with DBS for 18 h. […] Since PPT1-P and PPT1-IS are similar hydrophobic peptides, it is safe to presume that their depletion will occur at similar rates and will not affect their molar ratio. […] Based on these measurements, the incubation time for both PPT1 and TPP1 was set at 10 h. The enzyme kinetics with respect to the synthetic substrates was established through Michaelis-Menten plots which were fitted to obtain the Km and Vmax values (FIGS. 12A and 12B). Each Michaelis-Menten curve was obtained from triplicate activity measurements over an appropriate substrate concentration range (0-500 μM and 0-300 μM). […] The measured Km were used to adjust the initial substrate concentrations in the assays to ≥2 Km value, e.g. 0.46 and 0.40 mM for PPT1-S and TPP1-S, respectively.
# [2] = target: T1, palmitoyl protein thioesterase 1 (PPT1); test: PPT1 assay in dried blood spots with synthetic substrate, tandem mass spectrometry (SRM); assay type: biochemical
# Experimental: (§1) Electrospray-MS/MS was carried out on a Waters Quattro Micro tandem quadrupole (quadrupole-hexapole-quadrupole) instrument using a positive ionization mode and selected reaction monitoring (SRM). Samples (10 μL) were flow-injected with an autosampler in an acetonitrile/water (v/v=80:20) solution containing 0.1% formic at a flow rate of 0.2 mL/min. The mass spectrometer settings were as follows: Capillary voltage 3.5 kV; cone 35 V; extractor 2.0 V; RF lens, 0.2 V; source temperature, 120° C.; desolvation temperature, 250° C.; cone gas flow, 50 L/h; desolvation gas flow, 500 L/h; LM 1 resolution, 14.8; HM 1 resolution, 14.8; ion energy 1, 0.2 eV; entrance, 2 V; collision, 25 eV; exit, 15 V; LM 2 resolution, 14.8; HM 2 resolution, 14.8; ion energy 2, 1.0 eV; multiplier, 650 V; gas cell Pirani pressure, 2.21×10^−3 mbar; dwell time 100 ms. Shorter dwell times (10 ms) were also investigated on the Quattro Micro instrument but led to increased coefficients of variation (CV) for intra-assay measurements from 1.5% at 100 ms to 4% at 10 ms, all for triplicate injections. The precursor ion-fragment ion SRM transitions for the PPT1 assays were monitored at m/z 762.5→m/z 423.5 and m/z 678.4→m/z 423.4 for PPT1-P and PPTI-IS, respectively, corresponding to the formation of the abundant y4 fragment ion of the peptide (FIGS. 1A and 1B). The SRM transitions for the TPP1 assays were monitored at m/z 308.3→m/z 208.3 and m/z 317.3→m/z 209.3 for TPP1-P and TPP1-IS, respectively, as shown in FIG. 2.
# A 3-mm punch of a dried blood spot was placed in a 1.5 mL polypropylene tube (Eppendorf) and 100 μL of 100 mM phosphate buffer solution (pH 7) containing 46 nmol of PPT1 substrate (PPT1-S, FIG. 5 (left)) and 2.6 nmol of PPT1 internal standard (PPT1-IS) and 0.08% v/v Triton X-100 (ACROS, Cat #21568) was added. The solution was then vortexed briefly and incubated for 10 h at 37° C. in a thermostated air shaker at 250 rpm. After the incubation period was over, the sample was placed in an ice bath and the reaction was quenched by addition of 300 μL of ethyl acetate and 100 μL of deionized water. […]
# [3] = Non-enzymatic hydrolysis of substrate in blank (absence of DBS), pH dependence; assay type: physicochemical
# Text: The PPT1 activity is known to have an optimum activity at pH 7 when acting on the natural substrate. […] The production of TPP-P by non-enzymatic hydrolysis in the blank sample at pH 4 was ca. 15 fold lower than that due to TPP1 activity in the DBS.
# [4] = target: T2, tripeptidyl peptidase 1 (TPP1); test: TPP1 assay in dried blood spots with synthetic substrate, tandem mass spectrometry (SRM); assay type: biochemical
# Experimental: as §1
# TPP1 substrate solution was prepared by dissolving 5 mg TPP1 substrate (FIG. 5 (right)) in 1.5 mL of dimethyl sulfoxide (DMSO). 1 mg TPP1 IS was dissolved in 1.5 mL of assay buffer, which contained 0.15 M NaCl and 0.1 M sodium acetate buffer at pH 4.0. This concentrated TPP1 IS solution was further diluted with stock assay buffer to make a 300 μM IS solution. The assay cocktail was a 100 μL mixture composed of 7.2 μL of substrate solution (40 nmol), 5 μL of 300 μM IS solution (1.5 nmol) and additional 87.8 μL of stock assay buffer. […]
# [5] = target: T3, palmitoyl protein thioesterase; test: Simplex PPT1 assay (C12 thioester substrate) carried out with recombinant palmitoyl protein thioesterase, LC-MS/MS; assay type: biochemical; details: 2 μL recombinant PPT1 enzyme, 0.6 mM C12 thioester substrate, pH 6.75
# Experimental: Assay cocktail: a substrate and internal standard stock solution (methanol solution) were pipetted into a vial and dried using a speed vacuum. After all the solvent is removed, the residue was diluted with assay buffer (0.1M phosphate citrate buffer, 0.08% Triton X-100 (or sodium taurocholate), 0.1 mM EDTA (or no EDTA) at pH=6.75) to a final concentration of 0.6 mM (substrate), 30 μM (Internal Standard), and mixed by vortexing.
# […] For the blank control, a 3.2 mm filter paper punch was placed in a vial. 30 μL of assay cocktail was added to each vial, which either includes dried blood spot (or filter paper blanks). The Eppendorf vial is shaken at 37° C. for 16 hrs using an orbital shaker (250 rpm)/incubator.
# After the incubation, the assay is quenched with 100 μL of methanol/ethyl acetate=50/50 mixture, and then 400 μL of ethyl acetate, then 200 μL of 0.5M NaCl(aq), pipette up and down 10× times to mix well.
# The sample tubes were then centrifuged at 3000 rpm for 5 minutes. 200 μL of upper layer solution (organic layer) was removed, and transferred to a new shallow plate. The solvent was evaporated under nitrogen gas flow, the remaining solid was reconstituted with 100 μL LC-MS solvent (55/45 water/acetonitrile with 0.1% formic acid). The solution was mixed up and down about 10 times with a pipettor.
# The plate was placed on the autosampler of the LC-MS/MS for isocratic LC-MS/MS. […]
# [6] = PPT1 in DBS, Michaelis-Menten fit, triplicate activity measurements
# [7] = TPP1 in DBS, Michaelis-Menten fit, triplicate activity measurements
molecule,measurement,setting,value
Ac-ALLPFGC [PPT1-P],decrease of PPT1-P compared to a control sample,[1],25-27%
"N-Ac-Ala-Leu-Leu-Pro-Phe-Gly-Cys-S—COC11H23 (Ac-ALLPFGC(Lauroyl); also: S-acyl: name COC11H23, mods S-palmitoyl) [PPT1 substrate, cysteine terminated heptapeptide carrying an S-palmitoyl group]",product produced on average per one DBS,[2]; 10 h incubation,4.7 nmol
same,Km,[2]; [6],230 µM
same,Vmax,[2]; [6],217.0 µmol/L/h
same,non-enzymatic hydrolysis of the thioester bond,[3]; between pH 7 and 8,substantially increased
C[C@H](N)C(=O)N[C@@H](C)C(=O)N[C@@H](Cc1ccccc1)C(=O)NCc1ccc(C(=O)NCCCNC(=O)OC(C)(C)C)cc1 [TPP1 substrate],"production of TPP-P by non-enzymatic hydrolysis in the blank sample, fold lower than that due to TPP1 activity in the DBS",[3]; pH 4,ca. 15 fold
same,product produced per DBS,[4]; 10 h incubation,1.7 nmol/DBS
same,Km,[4]; [7],53.3 µM
same,Vmax,[4]; [7],46.0 µmol/L/h
"recombinant PPT1 enzyme: recombinant palmitoyl protein thioesterase (protein, UniProt P50897 28-306, looked up) Palmitoyl-protein …: DPPAPLPLVIWHGMGDSCCNPLSMGAIKKMVEKKIPGIYVLSLEIGKTLMEDVENSFFLNVNSQVTTVCQALAKDPKLQQGYNAMGFSQGGQFLRAVAQRCPSPPMINLISVGGQHQGVFGLPRCPGESSHICDFIRKTLNAGAYSKVVQERLVQAEYWHDPIKEDVYRNHSIFLADINQERGINESYKKNLMALKKFVMVKFLNDSIVDPVDSEWFGFYRSGQAKETIPLQETSLYTQDRLGLKEMDNAGQLVFLATEGDHLQLSEEWFYAHIIPFLG",activity,[5],40.4682 μmol/Lh
